# Data reported in patent US20160331662A1, “Compositions that Inhibit and Prevent the Formation of Dental Caries and Methods of Using the Same” (priority 2014, published 2016).
# Tests used:
# [1] = biological target: T1, iSRCR1 (Homo sapiens, UniProt Q9UGM3); assay: SPR binding of analytes to immobilized iSRCR1 (CM5 chip, 1:1 Langmuir); conditions: ligand iSRCR1
# T1 construct: strongly proves that a single SRCR domain contains the adherence sites for AgI/II and SspB; made in house; host or cells: Drosophila expression system
# T1 sequence (Q9UGM3 102-202 limits assumed): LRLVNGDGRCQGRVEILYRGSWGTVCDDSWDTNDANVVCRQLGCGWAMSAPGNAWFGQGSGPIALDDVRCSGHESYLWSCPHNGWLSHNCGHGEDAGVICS
# Protocol: (§1) Real time binding analyses of the SRCR domains with AgI/II fragments were carried out using the BIAcore 2000 system. […] Self association of iSRCR1 or iSRCR123 (at 2 μM) were also determined in a similar manner as described above. Finally to determine the effect of calcium SPR analysis was carried out by dialyzing the analytes and ligands in binding buffer devoid of CaCl2.
# (§2) In addition, the SRCR holding two distinct surfaces compounded the elucidation of individual kinetics, and presently there are no modeling protocols available to determine the individual affinities for such a system, therefore for simplicity we have utilized a single site 1:1 Langmuir model. All experiments were carried out in triplicates and the kinetics of the association (KA) and dissociation (KD) rate constants were deduced using the 1:1 Langmuir Kinetic model on the BIA-Evaluation software. The concentration (C in μM) of analyte (FL^AgI/II or FL^SspB at 2 μM) that adhered to the immobilized ligand (iSRCR1, iSRCR123) within the flow cell was calculated using the formula C=(RU/MW)×(1/V), where RU is resonance unit (1 RU=1 pg of bound protein), MW is molecular weight of analyte and V is volume of flow cell (1.2×10^−10 L).
# [2] = biological target: T2, iSRCR1 (Deglycosylated) (Homo sapiens, UniProt Q9UGM3); assay: SPR binding of analytes to on-chip deglycosylated iSRCR1; conditions: ligand iSRCR1 (Deglycosylated)
# T2 construct: strongly proves that a single SRCR domain contains the adherence sites for AgI/II and SspB; made in house; host or cells: Drosophila expression system
# T2 sequence (Q9UGM3 102-202): as the sequence (Q9UGM3 102-202 limits assumed) above
# Protocol: as §1
# (§3) On-chip Deglycosylation of the iSRCR1 and iSRCR123 was carried out after immobilizing them on CM5 sensor chip. Enzymatic deglycosylation was done to remove N- and O-linked carbohydrates from iSRCR1 and iSRCR123. Briefly, after immobilization of iSRCR1 and iSRCR123, deglycosylation was carried out at native conditions by incubating the entire chip surface externally with a cocktail containing a total reaction volume of 40 μl made up of 4 μl of 10×G7reaction buffer, 4 μl of 10% NP40, 4 μl of Neuraminidase (Sigma), 18 μl water and 10 μl of O-glycosidase (New England Biolabs, Inc.,) and similarly following manufacturers protocols for EndoH (New England Biolabs, Inc). Later, the chip was sealed and incubated overnight at 37° C. Subsequently the chip was thoroughly washed with binding buffer (20 mM HEPES, 150 mM NaCl, 2.5 mM CaCl2) to remove the deglycosylating enzymes and other remnants. Binding studies with FL^AgI/II and FL^SspB and subfragments were then carried out as described above and regenerated as described in Table 2.
# as §2
# [3] = biological target: T3, iSRCR123 (Homo sapiens, UniProt Q9UGM3); assay: SPR binding of analytes to immobilized iSRCR123 (CM5 chip, 1:1 Langmuir); conditions: for KA / Kd / ka / kd: ligand iSRCR123
# T3 construct: multiple SRCR domains have better adherence capability compared to that of a single SRCR domain; made in house; host or cells: Drosophila expression system
# T3 sequence (Q9UGM3 102-463 limits assumed): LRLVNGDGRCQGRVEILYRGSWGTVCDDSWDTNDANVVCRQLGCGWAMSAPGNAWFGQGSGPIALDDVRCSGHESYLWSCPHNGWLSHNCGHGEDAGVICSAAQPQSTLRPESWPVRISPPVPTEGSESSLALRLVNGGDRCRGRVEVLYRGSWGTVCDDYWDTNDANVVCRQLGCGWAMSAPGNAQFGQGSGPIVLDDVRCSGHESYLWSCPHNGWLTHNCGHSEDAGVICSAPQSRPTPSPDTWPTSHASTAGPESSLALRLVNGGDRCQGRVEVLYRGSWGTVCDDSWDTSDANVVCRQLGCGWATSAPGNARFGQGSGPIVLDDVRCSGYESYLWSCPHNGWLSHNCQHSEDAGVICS
# Protocol: as §1, §2
# [4] = biological target: T4, iSRCR123 (Deglycosylated) (Homo sapiens, UniProt Q9UGM3); assay: SPR binding of analytes to on-chip deglycosylated iSRCR123; conditions: ligand iSRCR123 (Deglycosylated)
# T4 construct: multiple SRCR domains have better adherence capability compared to that of a single SRCR domain; made in house; host or cells: Drosophila expression system
# T4 sequence (Q9UGM3 102-463 limits assumed): as above
# Protocol: as §1, §3, §2
# [5] = biological target: T5, SAG (Homo sapiens, UniProt Q9UGM3); assay: SPR binding of analytes to immobilized SAG; conditions: ligand SAG
# T5 construct: from tissue; host or cells: saliva (purified SAG, gift)
# T5 sequence (Q9UGM3 20-2413): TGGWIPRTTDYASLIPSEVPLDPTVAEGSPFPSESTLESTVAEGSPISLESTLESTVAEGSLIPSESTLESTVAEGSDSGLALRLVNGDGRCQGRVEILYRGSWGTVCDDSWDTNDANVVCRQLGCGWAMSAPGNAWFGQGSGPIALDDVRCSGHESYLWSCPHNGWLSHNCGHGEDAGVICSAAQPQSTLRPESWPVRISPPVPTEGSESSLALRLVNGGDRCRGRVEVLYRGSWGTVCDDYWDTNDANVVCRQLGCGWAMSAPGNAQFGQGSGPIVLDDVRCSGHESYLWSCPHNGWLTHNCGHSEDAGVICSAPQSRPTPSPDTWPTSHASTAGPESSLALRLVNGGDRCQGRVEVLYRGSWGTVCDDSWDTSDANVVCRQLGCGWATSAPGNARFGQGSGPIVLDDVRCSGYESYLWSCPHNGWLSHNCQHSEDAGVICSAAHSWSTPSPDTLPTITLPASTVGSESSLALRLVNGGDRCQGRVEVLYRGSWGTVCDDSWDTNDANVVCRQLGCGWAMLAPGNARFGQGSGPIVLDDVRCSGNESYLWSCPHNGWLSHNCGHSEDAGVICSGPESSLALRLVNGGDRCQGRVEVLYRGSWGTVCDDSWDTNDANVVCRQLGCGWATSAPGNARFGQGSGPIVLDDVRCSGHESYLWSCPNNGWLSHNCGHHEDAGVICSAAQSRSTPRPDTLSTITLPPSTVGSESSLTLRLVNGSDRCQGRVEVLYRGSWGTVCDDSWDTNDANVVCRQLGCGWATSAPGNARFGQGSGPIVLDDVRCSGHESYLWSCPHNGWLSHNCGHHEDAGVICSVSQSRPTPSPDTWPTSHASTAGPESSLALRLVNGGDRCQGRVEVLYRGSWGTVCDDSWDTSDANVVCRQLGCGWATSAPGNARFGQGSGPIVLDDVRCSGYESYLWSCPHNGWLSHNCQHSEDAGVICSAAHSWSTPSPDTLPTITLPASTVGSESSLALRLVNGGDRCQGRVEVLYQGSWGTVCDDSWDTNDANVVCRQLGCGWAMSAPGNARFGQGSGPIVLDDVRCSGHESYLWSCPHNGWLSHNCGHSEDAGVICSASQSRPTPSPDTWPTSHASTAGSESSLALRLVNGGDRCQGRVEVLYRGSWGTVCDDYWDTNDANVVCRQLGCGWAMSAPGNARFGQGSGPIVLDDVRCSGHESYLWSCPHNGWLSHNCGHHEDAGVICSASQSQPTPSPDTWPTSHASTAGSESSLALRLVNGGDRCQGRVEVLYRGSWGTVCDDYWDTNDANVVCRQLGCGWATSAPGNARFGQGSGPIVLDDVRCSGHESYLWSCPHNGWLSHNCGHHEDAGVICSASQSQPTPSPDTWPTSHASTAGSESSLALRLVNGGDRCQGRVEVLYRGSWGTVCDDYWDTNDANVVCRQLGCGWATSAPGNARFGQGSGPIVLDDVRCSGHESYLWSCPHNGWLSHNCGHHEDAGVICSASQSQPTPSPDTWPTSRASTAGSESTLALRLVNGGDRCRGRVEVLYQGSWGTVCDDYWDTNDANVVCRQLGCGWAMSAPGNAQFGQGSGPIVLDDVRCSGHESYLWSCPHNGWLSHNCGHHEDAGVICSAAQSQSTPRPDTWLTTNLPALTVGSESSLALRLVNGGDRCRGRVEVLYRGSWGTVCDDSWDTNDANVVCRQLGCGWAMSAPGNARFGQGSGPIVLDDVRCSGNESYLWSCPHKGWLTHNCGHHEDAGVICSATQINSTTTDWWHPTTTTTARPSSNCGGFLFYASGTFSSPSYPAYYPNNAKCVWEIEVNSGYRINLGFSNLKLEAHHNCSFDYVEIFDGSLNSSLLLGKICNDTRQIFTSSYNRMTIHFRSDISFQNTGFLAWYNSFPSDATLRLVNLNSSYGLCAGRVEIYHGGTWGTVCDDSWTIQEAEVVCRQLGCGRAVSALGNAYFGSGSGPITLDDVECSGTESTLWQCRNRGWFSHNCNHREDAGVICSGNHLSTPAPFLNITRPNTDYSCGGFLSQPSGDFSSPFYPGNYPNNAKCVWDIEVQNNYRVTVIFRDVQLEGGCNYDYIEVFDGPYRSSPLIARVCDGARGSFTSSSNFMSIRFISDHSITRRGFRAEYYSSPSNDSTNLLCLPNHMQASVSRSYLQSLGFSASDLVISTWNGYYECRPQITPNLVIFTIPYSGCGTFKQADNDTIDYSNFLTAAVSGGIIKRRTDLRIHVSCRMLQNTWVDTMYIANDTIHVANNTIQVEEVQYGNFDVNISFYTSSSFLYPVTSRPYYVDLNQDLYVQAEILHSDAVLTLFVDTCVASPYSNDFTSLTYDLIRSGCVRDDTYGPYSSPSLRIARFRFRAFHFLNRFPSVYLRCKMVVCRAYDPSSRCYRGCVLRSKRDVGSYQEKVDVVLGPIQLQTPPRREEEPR
# Protocol: as §1, §2
# [6] = biological target: T1, iSRCR1; assay: Competition adherence SPR on immobilized iSRCR1; assay type: binding; conditions: FL injected first
# Protocol: (§4) To determine whether AgI/II domains bound to the same site on SRCR domains, competitive binding SPR experiments were conducted in triplicates as previously described where each fragment of AgI/II (FL, A3VP1, or C123) or SspB (FL, A3VP1 or C123) was initially passed over the chip surface immobilized with either iSRCR1, iSRCR123 or SAG for 60 seconds to saturate available binding sites. The response curve of AgI/II or SspB first fragment was recorded, where the maximal RU (RU1) was considered as the base line for the second injection, and thereafter the competing fragment was injected and its response was recorded as RU2. The adherence of the second fragment was then calculated (RU2−RU1) for all SPR competing assay as reported earlier.
# [7] = biological target: T3, iSRCR123; assay: Competition adherence SPR on immobilized iSRCR123; assay type: binding; conditions: FL injected first
# Protocol: as §4
Molecule,KA [1],Kd [1],ka [1],kd [1],KA [2],Kd [2],ka [2],kd [2],KA [3],Kd [3],ka [3],kd [3],KA [4],Kd [4],ka [4],kd [4],further results
A3VP1^AgI/II: S. mutans AgI/II apical A3VP1 fragment (54.4 kDa) (protein) AANEADYQAKLTAYQTELARVQKANADAKAAYEAAVAANNAANAALTAENTAIKKRNADAKADYEAKLAKYQADLAKYQKDLADYPVKLKAYEDEQASIKAALAELEKHKNEDGNLTEPSAQNLVYDLEPNANLSLTTDGKFLKASAVDDAFSKSTSKAKYDQKILQLDDLDITNLEQSNDVASSMELYGNFGDKAGWSTTVSNNSQVKWGSVLLERGQSATATYTNLQNSYYNGKKISKIVYKYTVDPKSKFQGQKVWLGIFTDPTLGVFASAYTGQVEKNTSIFIKNEFTFYDEDGKPINFDNALLSVASLNRENNSIEMAKDYTGKFVKISGSSIGEKNGMIYATDTLNFRQGQGGARWTMYTRASEPGSGWDSSDAPNSWYGAGAIRMSGPNNSVTLGAISSTLVVPADPTMAIETGKKPNIWYSLNGKIRAVNVPKVTKEKPTPPVKPTAPTKPTYETEKPLKPAPVAPNYEKEPTPPTRTPDQ,8.57e+06 M⁻¹,117 nM,28000 M⁻¹ s⁻¹,0.00327 s⁻¹,1.92e+06 M⁻¹,520 nM,5270 M⁻¹ s⁻¹,0.00274 s⁻¹,7.98e+06 M⁻¹,125 nM,19900 M⁻¹ s⁻¹,0.00249 s⁻¹,1.22e+06 M⁻¹,818 nM,4070 M⁻¹ s⁻¹,0.00333 s⁻¹,–
FL^SspB: S. gordonii SspB full length construct (151.9 kDa) (protein) DEVTETTSTSTVEVATTGNPATNLPEAQGEMSQVAKESQAKAGSKESALPVEVSSADLDKAVADAKSAGVKVVQDETKDKGTATTATDNAQKQDEIKSDYAKQAEEIKTTTEAYKKEVAAHQAETDKINAENKAADDKYQKDLKSHQEEVEKINTANATAKAEYEAKLAQYQKDLATVKKANEDSQQDYQNKLSAYQTELARVQKANAEAKEAYEKAVKENTAKNEALKVENEAIKQRNETAKATYEAAMKQYEADLAAIKKANEDNDADYQAKLAAYQTELARVQKANAEAKEAYDKAVKENTAKNTAIQAENEAIKQRNETAKATYDAAVKKYEADLAAVKQANATNEADYQAKLAAYQTELARVQKANADAKATYEKAVEDNKAKNAAIKAENEEIKQRNAVAKTDYEAKLAKYEADLAKYKKEFAAYTAALAEAESKKKQDGYLSEPRSQSLNFKSEPNAIRTIDSSVHQYGQQELDALVKSWGISPTNPDRKKSRAYSYFNAINSNNTYAKLVLEKDKPVDVTYTGLKNSSFNGKKISKVVYTYTLKETGFNDGTKMTMFASSDPTVTAWYNDYFTSTNINVKVKFYDEEGQLMNLTGGLVNFSSLNRGNGSGAIDKDAIESVRNFNGRYIPISGSSIKIHENNSAYADSSNAEKSLGARWNTSEWDTTSSPNNWYGAIVGEITQSEISFNMASSKSGNIWFAFNSNINAIGVPTKPVAPTAPTQPMYETEKPLEPAPVAPSYENEPTPPVKTPDQPEPSKPEEPTYETEKPLEPAPVAPSYENEPTPPVKTPDQPEPSKPEEPNYETEKPLEPAPVAPSYENEPTPPVKIPDQPEPSKPEEPTYDPLPTPPLAPTPKQLPTPPVVPTVHFHYSSLLAQPQINKEIKNEDGVDIDRTLVAKQSIVKFELKTEALTAGRPKTTSFVLVDPLPTGYKFDLDATKAASTGFDTTYDEASHTVTFKATDETLATYNADLTKPVETLHPTVVGRVLNDGATYTNNFTLTVNDAYGIKSNVVRVTTPGKPNDPDNPNNNYIKPTKVNKNKEGLNIDGKEVLAGSTNYYELTWDLDQYKGDKSSKEAIQNGFYYVDDYPEEALDVRPDLVKVADEKGNQVSGVSVQQYDSLEAAPKKVQDLLKKANITVKGAFQLFSADNPEEFYKQYVATGTSLVITDPMTVKSEFGKTGGKYENKAYQIDFGNGYATEVVVNNVPKITPKKDVTVSLDPTSENLDGQTVQLYQTFNYRLIGGLIPQNHSEELEDYSFVDDYDQAGDQYTGNYKTFSSLNLTMKDGSVIKAGTDLTSQTTAETDATNGIVTVRFKEDFLQKISLDSPFQAETYLQMRRIAIGTFENTYVNTVNKVAYASNTVRTTTPIPRTPDKPTPIPTPKPKDP,3.91e+06 M⁻¹,256 nM,9250 M⁻¹ s⁻¹,0.00237 s⁻¹,7.97e+06 M⁻¹,125 nM,8300 M⁻¹ s⁻¹,0.00104 s⁻¹,2.38e+07 M⁻¹,42.1 nM,18200 M⁻¹ s⁻¹,0.000759 s⁻¹,5.24e+06 M⁻¹,191 nM,6920 M⁻¹ s⁻¹,0.00132 s⁻¹,"quantity of protein that adhered to iSRCR123, higher than iSRCR1 ([3]; analyte at 2 μM, iSRCR123 versus iSRCR1): 43%; KA [5]: 1.63e+08 M⁻¹; ka [5]: 320000 M⁻¹ s⁻¹; kd [5]: 0.00197 s⁻¹; inhibition of binding of the A3VP1 fragment of the same protein [6]: 54%; inhibition of binding of the C123 fragment of the same protein [6]: 23%; inhibition of binding of the A3VP1 fragment of the same protein [7]: 68%; inhibition of binding of the C123 fragment of the same protein [7]: 76%"
C123^AgI/II: S. mutans AgI/II C-terminal C123 fragment (57.3 kDa) (protein) VNKEIRNNNDINIDRTLVAKQSVVKFQLKTADLPAGRDETTSFVLVDPLPSGYQFNPEATKAASPGFDVTYDNATNTVTFKATAATLATFNADLTKSVATIYPTVVGQVLNDGATYKNNFTLTVNDAYGIKSNVVRVTTPGKPNDPDNPNNNYIKPTKVNKNENGVVIDGKTVLAGSTNYYELTWDLDQYKNDRSSADTIQKGFYYVDDYPEEALELRQDLVKITDANGNEVTGVSVDNYTNLEAAPQEIRDVLSKAGIRPKGAFQIFRADNPREFYDTYVKTGIDLKIVSPMVVKKQMGQTGGSYENQAYQIDFGNGYASNIIINNVPKINPKKDVTLTLDPADTNNVDGQTIPLNTVFNYRLIGGIIPADHSEELFEYNFYDDYDQTGDHYTGQYKVFAKVDITFKDGSIIKSGAELTQYTTAEVDTAKGAITIKFKEAFLRSVSIDSAFQAESYIQMKRIAVGTFENTYINTVNGVTYSSNTVK,6.46e+06 M⁻¹,151 nM,15400 M⁻¹ s⁻¹,0.00232 s⁻¹,48100 M⁻¹,20800 nM,1180 M⁻¹ s⁻¹,0.0246 s⁻¹,1.15e+07 M⁻¹,87 nM,8290 M⁻¹ s⁻¹,0.000721 s⁻¹,458000 M⁻¹,2180 nM,3010 M⁻¹ s⁻¹,0.00658 s⁻¹,–
